According to patent US20240228586:

Molecular target: M-L2-IL12 (masked mouse IL-12 whose linker contains 3 repeats of VPLSLYSG), Q60837
Sequence (Q60837 whole entry, looked up): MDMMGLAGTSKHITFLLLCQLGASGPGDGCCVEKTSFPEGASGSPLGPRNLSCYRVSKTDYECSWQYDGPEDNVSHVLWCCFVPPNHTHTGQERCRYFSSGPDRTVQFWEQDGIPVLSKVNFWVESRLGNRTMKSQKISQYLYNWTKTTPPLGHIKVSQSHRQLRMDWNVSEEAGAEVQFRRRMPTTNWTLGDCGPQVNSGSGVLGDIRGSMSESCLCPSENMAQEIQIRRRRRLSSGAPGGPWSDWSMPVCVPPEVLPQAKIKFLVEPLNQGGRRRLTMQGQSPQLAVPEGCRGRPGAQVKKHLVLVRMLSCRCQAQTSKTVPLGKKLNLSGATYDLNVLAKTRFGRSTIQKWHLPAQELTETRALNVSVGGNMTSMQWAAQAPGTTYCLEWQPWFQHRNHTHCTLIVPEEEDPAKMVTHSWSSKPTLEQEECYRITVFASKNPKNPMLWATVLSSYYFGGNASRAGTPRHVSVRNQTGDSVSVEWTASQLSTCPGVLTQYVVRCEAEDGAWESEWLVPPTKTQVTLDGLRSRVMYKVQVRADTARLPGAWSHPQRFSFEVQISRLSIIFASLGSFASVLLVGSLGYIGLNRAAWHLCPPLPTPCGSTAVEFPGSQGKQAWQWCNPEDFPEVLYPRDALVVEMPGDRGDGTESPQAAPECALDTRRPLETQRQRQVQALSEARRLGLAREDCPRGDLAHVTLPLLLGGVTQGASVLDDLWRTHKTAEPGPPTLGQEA

B1: recombinant mouse matrix metalloproteinase-9 (protein)
chain: FQTFKGLKWDHHNITYWIQNYSEDLPRDMIDDAFARAFAVWGEVAPLTFTRVYGPEADIVIQFGVAEHGDGYPFDGKDGLLAHAFPPGAGVQGDAHFDDDELWSLGKGVVIPTYYGNSNGAPCHFPFTFEGRSYSACTTDGRNDGTPWCSTTADYDKDGKFGFCPSERLYTEHGNGEGKPCVFPFIFEGRSYSACTTKGRSDGYRWCATTANYDQDKLYGFCPTRVDATVVGGNSAGELCVFPFVFLGKQYSSCTSDGRRDGRLWCATTSNFDTDKKWGFCPDQGYSLFLVAAHEFGHALGLDHSSVPEALMYPLYSYLEGFPLNKDDIDGIQYLYGRGSKPDPRPPATTTTEPQPTAPPTMCPTIPPTAYPTVGPTVGPTGAPSPGPTSSPSPGPTGAPSPGPTAPPTAGSSEASTESLSPADNPCNVDVFDAIAEIQGALHFFKDGWYWKFLNHRGSPLQGPFLTARTWPALPATLDSAFEDPQTKRVFFFSGRQMWVYTGKTVLGPRSLDKLGLGPEVTHVSGLLPRRLGKALLFSKGRVWRFDLKSQKVDPQSVIRVDKEFSGVPWNSHDIFQYQDKAYFCHGKFFWRVSFQNEVNKVDHEVNQVDDVGYVTYDLLQCP
- in vitro cleavage, 30 min at 37° C., SDS-PAGE: Decrease of molecular weight from ˜105 kDa to ˜60 kDa indicates proteolytic cleavage of IL12Rβ1-VP-IL12 and IL12Rβ1-LS-IL12
